{
  "source": "patent EP4755401A1",
  "about": "“PHARMACEUTICAL COMPOSITION CONTAINING ANTIBODY-DRUG CONJUGATE OF GLUCOCORTICOID” (Jiangsu Hengrui Pharmaceuticals Co., Ltd., priority 2023, dated 2025)",
  "key": {"[1]": {"biological_target": "T1, human-derived IL-4Rα on expressing cells (human, UniProt P24394 26-825)", "T1 sequence (looked up)": "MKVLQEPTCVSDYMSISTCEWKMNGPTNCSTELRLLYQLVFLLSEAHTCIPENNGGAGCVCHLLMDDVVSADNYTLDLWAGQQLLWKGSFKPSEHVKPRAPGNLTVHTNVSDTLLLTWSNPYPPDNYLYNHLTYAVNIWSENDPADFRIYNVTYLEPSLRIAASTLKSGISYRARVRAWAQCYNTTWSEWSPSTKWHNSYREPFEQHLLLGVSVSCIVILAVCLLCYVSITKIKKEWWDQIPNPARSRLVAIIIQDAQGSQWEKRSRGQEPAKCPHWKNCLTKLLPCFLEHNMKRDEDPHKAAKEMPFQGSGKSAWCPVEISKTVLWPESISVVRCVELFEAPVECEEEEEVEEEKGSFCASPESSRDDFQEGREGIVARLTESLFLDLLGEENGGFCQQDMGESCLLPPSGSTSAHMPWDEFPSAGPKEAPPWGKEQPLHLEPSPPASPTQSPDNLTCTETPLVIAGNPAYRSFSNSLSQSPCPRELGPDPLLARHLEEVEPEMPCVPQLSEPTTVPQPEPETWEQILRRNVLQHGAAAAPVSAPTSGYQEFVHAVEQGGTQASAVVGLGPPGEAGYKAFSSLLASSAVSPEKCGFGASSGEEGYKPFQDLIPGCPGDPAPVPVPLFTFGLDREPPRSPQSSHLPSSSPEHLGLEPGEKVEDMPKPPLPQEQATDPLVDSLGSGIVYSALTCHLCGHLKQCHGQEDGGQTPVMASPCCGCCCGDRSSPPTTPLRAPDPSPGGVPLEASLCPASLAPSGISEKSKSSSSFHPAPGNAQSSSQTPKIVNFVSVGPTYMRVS", "test": "flow cytometry on TF-1 cells expressing IL-4Rα, anti-His-FITC detection"}, "[2]": {"biological_target": "Biotin-labeled human-derived IL-4Rα protein (SinoBiological, CAT# 10402-H08H-B) (human) (UniProt P24394)", "test": "SPR, Biacore 8K, biotin-hIL-4Rα captured on SA chip, test protein as analyte"}, "[3]": {"test": "Pharmacokinetic test in a mouse model after intratracheal nebulized administration", "format": "in vivo, C57BL6/J mice", "conditions": "mice, ADC-2 100 µg i.t. once; serum, BALF, lung tissue", "description": "Mice received intratracheal (i.t.) nebulized administration. […] Following blood collection, the mice were anesthetized and immobilized. […] Table 4. Administration scheme"}, "[4]": {"biological_target": "T1, human-derived IL-4Rα on expressing cells", "test": "cell-based or functional assay"}, "[5]": {"biological_target": "T2, Biotin-labeled human-derived IL-4Rα protein (SinoBiological, CAT# 10402-H08H-B) (human, UniProt P24394 26-232, biotin-labeled (site not stated))", "T2 construct": "Bought reagent, captured on an SA sensor chip; also called hIL-4Rα; human-derived IL-4Rα antigen protein", "T2 sequence (looked up)": "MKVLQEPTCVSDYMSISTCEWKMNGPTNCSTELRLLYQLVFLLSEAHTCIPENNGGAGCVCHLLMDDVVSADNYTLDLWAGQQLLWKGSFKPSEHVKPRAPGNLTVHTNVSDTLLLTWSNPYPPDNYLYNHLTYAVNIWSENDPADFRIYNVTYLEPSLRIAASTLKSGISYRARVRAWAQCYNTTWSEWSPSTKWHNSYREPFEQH", "test": "SPR, Biacore 8K, biotin-hIL-4Rα captured on SA chip, test protein as analyte"}, "[6]": {"biological_target": "T1, human-derived IL-4Rα on expressing cells", "test": "flow cytometry on TF-1 cells expressing IL-4Rα, anti-hFab-FITC detection"}},
  "data": [
    {"molecule": "AZD1402-TAG (designed binder)", "values": [
      {"measurement": "EC50", "setting": "[1]", "value": 0.0124, "unit": "nM"},
      {"measurement": "Kd", "setting": "[2]", "value": 0.0213, "unit": "nM"},
      {"measurement": "koff", "setting": "[2]", "value": 0.000102, "unit": "s⁻¹"},
      {"measurement": "kon", "setting": "[2]", "value": "4.77e+06", "unit": "M⁻¹ s⁻¹"}
    ]},
    {"molecule": "CCCC1O[C@@H]2C[C@H]3[C@@H]4CCC5=CC(=O)C=C[C@]5(C)[C@H]4[C@@H](O)C[C@]3(C)[C@]2(C(=O)CO)O1", "note": "(some centres unmarked) [budesonide]", "values": [
      {"measurement": "distribution / exposure after intratracheal administration (in words)", "setting": "[3]", "value": "very low in all tissues"}
    ]},
    {"molecule": "antibody-drug conjugate ADC-2 (Fab, V domains shown, budesonide drug-linker (compound 2, maleimide) conjugated after TCEP reduction of 25G7-Fab; conjugated residues and drug load not stated) VH: EVQLVESGGGLVQPGGSLRLSCAASGFTFSDYGMHWVRQAPGKGLEWVAFISSGSSIIYYADIVKGRSTISRDNAKNTLYLQMNSLRAEDTAVYYCTRGNKRGFFDYWGQGTLVTVSS VL: EIVLTQSPATLSLSPGERATLSCRASSSVPYMYWYQQKPGQAPRLLIYLTSNLASGIPARFSGSGSGTDFTLTISSLEPEDFAVYYCQQWRAYPPMLTFGGGTKVEIKR", "values": [
      {"measurement": "IC50 values for blocking the IL-4 signaling pathway (nM); HEK-Blue IL-4/IL-13 STAT6-SEAP reporter cells", "setting": "[4]", "value": 0.68, "unit": "nM"},
      {"measurement": "IC50 values for blocking the IL-13 signaling pathway (nM); HEK-Blue IL-4/IL-13 STAT6-SEAP reporter cells", "setting": "[4]", "value": 10.6, "unit": "nM"}
    ]},
    {"molecule": "25G7-Fab (Fab, V domains shown, also called naked anti-25G7-Fab; naked antibody 25G7-Fab) VH: EVQLVESGGGLVQPGGSLRLSCAASGFTFSDYGMHWVRQAPGKGLEWVAFISSGSSIIYYADIVKGRSTISRDNAKNTLYLQMNSLRAEDTAVYYCTRGNKRGFFDYWGQGTLVTVSS VL: EIVLTQSPATLSLSPGERATLSCRASSSVPYMYWYQQKPGQAPRLLIYLTSNLASGIPARFSGSGSGTDFTLTISSLEPEDFAVYYCQQWRAYPPMLTFGGGTKVEIKR", "values": [
      {"measurement": "Kd", "setting": "[5]", "value": 0.0439, "unit": "nM"},
      {"measurement": "koff", "setting": "[5]", "value": 0.000206, "unit": "s⁻¹"},
      {"measurement": "kon", "setting": "[5]", "value": "4.69e+06", "unit": "M⁻¹ s⁻¹"},
      {"measurement": "EC50", "setting": "[6]", "value": 0.243, "unit": "nM"},
      {"measurement": "IC50 values for blocking the IL-4 signaling pathway (nM); HEK-Blue IL-4/IL-13 STAT6-SEAP reporter cells", "setting": "[4]", "value": 0.61, "unit": "nM"},
      {"measurement": "IC50 values for blocking the IL-13 signaling pathway (nM); HEK-Blue IL-4/IL-13 STAT6-SEAP reporter cells", "setting": "[4]", "value": 14.6, "unit": "nM"}
    ]},
    {"molecule": "hu25G7 (antibody, human IgG4 S228P, kappa, V domains shown, Full-length humanized anti-IL-4R IgG4 antibody) VH: EVQLVESGGGLVQPGGSLRLSCAASGFTFSDYGMHWVRQAPGKGLEWVAFISSGSSIIYYADIVKGRSTISRDNAKNTLYLQMNSLRAEDTAVYYCTRGNKRGFFDYWGQGTLVTVSS VL: EIVLTQSPATLSLSPGERATLSCRASSSVPYMYWYQQKPGQAPRLLIYLTSNLASGIPARFSGSGSGTDFTLTISSLEPEDFAVYYCQQWRAYPPMLTFGGGTKVEIKR", "values": [
      {"measurement": "EC50", "setting": "[6]", "value": 0.247, "unit": "nM"}
    ]}
  ]
}
